Results on 15 variants are retold here after the supplement of paper PMC7125110.

B1: glmS ribozyme (parent)
chain: AUAAAAGCGCCAGAACUACAGAAAUGUAGUUGACGAGGAGGAGGUUUAUCGAAUUUUCGGCGGAUGCCUCCAAA

Common to all, as to settings: with glucosamine-6-phosphate
Data set [1] covers variants of B1. Put plainly: self-cleavage kobs at 40 uM GlcN6P; higher = faster cleavage; RNA array. The method in brief:
(§1)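 On sequenced MiSeq chips, barcoded ribozyme variants were made in situ by E. coli RNA polymerase and followed at 37 °C through a hybridised Cy3 probe. Glucosamine-6-phosphate was flowed in at 40 μM to 10 mM in HEPES/KCl/Mg(OAc)2 buffer. Exponential fits to normalised per-tile medians gave kobs, and weighted Michaelis–Menten fits gave kcat and KM.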

Variants of B1 are the subject of data set [2]. Put plainly: self-cleavage kobs at 160 uM GlcN6P; higher = faster cleavage; RNA array. The essentials:
as §1

In data set [3] the parent is B1. The data set can be described thus: self-cleavage kobs at 640 uM GlcN6P; higher = faster cleavage; RNA array. The method in brief: as §1
The variants in data set [4] derive from B1. Put plainly: self-cleavage kobs at 10000 uM GlcN6P; higher = faster cleavage; RNA array. The method in brief:
as §1

Data set [5] covers variants of B1. Put plainly: self-cleavage kobs at 2500 uM GlcN6P; higher = faster cleavage; RNA array. The method in brief: as §1

± gives the standard error. Fewer inactive variants are shown than the library holds.

As for AUAAAAGCGCCGGAACUACAGAAAUGUAGUUGGUGAGGAGGAGGUUUCUCGAAUUUUCGGCGGAUGCCUCGAAA [A12G A33G C34U A48C C71G], the “self-cleavage kobs at 40 uM GlcN6P” value with glucosamine-6-phosphate [1] was less than 1e-05 s⁻¹.

In the case of AUAAAAGCGCCAGAACUACAGAAAUGUAGUUGACAAGGAGGAGGUUAAUCGAAUUUCCGGCGGAUACCUCCAAA [G35A U47A U57C G66A], in the data set with glucosamine-6-phosphate [1], the “self-cleavage kobs at 40 uM GlcN6P” value was less than 1e-05 s⁻¹.

For the variant AUAAAAUCGCCAGAACUACAGAAAUGUAGUUGACGACGCGGAGGUUUAUCGAAUUUUCGGCCGAUGCCUCCAAA [G7U G37C A39C G62C], the “self-cleavage kobs at 40 uM GlcN6P” value with glucosamine-6-phosphate [1] was less than 1e-05 s⁻¹.

On to AUAAAAGCGCCACAACUACAGAAAUGUAGUUGACGAGGAGGAGGUUUAUCGAAUUUUCCGCGGAUGCCUCCAAA [G13C G59C], for which the “self-cleavage kobs at 40 uM GlcN6P” value in the data set with glucosamine-6-phosphate [1] was less than 1e-05 s⁻¹. Further, the “self-cleavage kobs at 160 uM GlcN6P” value in the data set with glucosamine-6-phosphate [2] is less than 1e-05 s⁻¹. Besides, in the data set with glucosamine-6-phosphate [3], the “self-cleavage kobs at 640 uM GlcN6P” value was less than 1e-05 s⁻¹. Also, the “self-cleavage kobs at 10000 uM GlcN6P” value with glucosamine-6-phosphate [4] is less than 1e-05 s⁻¹.

On to AUAAAAGCGGCAGAACUACAGAAAUGUAGUUGUCGAGGAGGAUGUUUAUCGAAUUUUCGGCGCAUGCCUCGAAA [C10G A33U G43U G63C C71G], for which the “self-cleavage kobs at 40 uM GlcN6P” value with glucosamine-6-phosphate [1] was less than 1e-05 s⁻¹.

Regarding AUAAAAGCGCCAGAACUACAGAAAUGUAGUUGACCAGGAGGAGGUUUAUCGAAUUUUCGGCGGAUGCAUCUAAA [G35C C68A C71U], in the data set with glucosamine-6-phosphate [1], the “self-cleavage kobs at 40 uM GlcN6P” value was less than 1e-05 s⁻¹. In addition, the “self-cleavage kobs at 640 uM GlcN6P” value with glucosamine-6-phosphate [3] is less than 1e-05 s⁻¹. Further, the “self-cleavage kobs at 2500 uM GlcN6P” value with glucosamine-6-phosphate [5] is less than 1e-05 s⁻¹. Also, the “self-cleavage kobs at 10000 uM GlcN6P” value in the data set with glucosamine-6-phosphate [4] was less than 1e-05 s⁻¹.

Consider AUAAAAGCGCCAGAACUACAGAAAUGUACCUGACGAGCAGGAGAUUUCUCGAAUGUUCGGCGGAUGCCUCCAAA [G29C U30C G38C G44A A48C U55G], for which the “self-cleavage kobs at 40 uM GlcN6P” value with glucosamine-6-phosphate [1] is less than 1e-05 s⁻¹. In addition, the “self-cleavage kobs at 2500 uM GlcN6P” value with glucosamine-6-phosphate [5] was less than 1e-05 s⁻¹. The “self-cleavage kobs at 10000 uM GlcN6P” value with glucosamine-6-phosphate [4] is less than 1e-05 s⁻¹.

On to AUAAAAGCGCCAGAACUACAGAAAUGUAGUUGACGAGGAGGUGGUUUAUCGAAUUUUCGGCGGAUGCAUCCAAA [A42U C68A], for which the “self-cleavage kobs at 40 uM GlcN6P” value in the data set with glucosamine-6-phosphate [1] was less than 1e-05 s⁻¹. Also, the “self-cleavage kobs at 160 uM GlcN6P” value in the data set with glucosamine-6-phosphate [2] was less than 1e-05 s⁻¹. In addition, the “self-cleavage kobs at 640 uM GlcN6P” value with glucosamine-6-phosphate [3] was less than 1e-05 s⁻¹. For the same variant, the “self-cleavage kobs at 10000 uM GlcN6P” value with glucosamine-6-phosphate [4] is less than 1e-05 s⁻¹.

Consider AUAAAAGCGCCAGAACUACAGAAAUGUAGUUGAUGAGGAGGAGGUUUAUCGAAUGUUCGGCGGAUGCCUCUAAA [C34U U55G C71U], for which the “self-cleavage kobs at 40 uM GlcN6P” value with glucosamine-6-phosphate [1] is less than 1e-05 s⁻¹.

Consider AUAAAAACGCCAGAACUACAGAAAUGUAGUUGACGAGGAGGAGGUUUUUCGAAUUGUCGGCGGAUGCCUCCAAA [G7A A48U U56G], for which the “self-cleavage kobs at 40 uM GlcN6P” value with glucosamine-6-phosphate [1] was less than 1e-05 s⁻¹. Also, the “self-cleavage kobs at 160 uM GlcN6P” value with glucosamine-6-phosphate [2] is less than 1e-05 s⁻¹. Moreover, the “self-cleavage kobs at 640 uM GlcN6P” value with glucosamine-6-phosphate [3] was less than 1e-05 s⁻¹. Further, the “self-cleavage kobs at 10000 uM GlcN6P” value in the data set with glucosamine-6-phosphate [4] is less than 1e-05 s⁻¹.

As to AUAAACGCGCCAGAAAUACAGAAAUGUAAUUGACGAGGAGGAGGUUUAUCGAAUUUUCGGCGCAUGACUCCAAA [A6C C16A G29A G63C C67A], in the data set with glucosamine-6-phosphate [1], the “self-cleavage kobs at 40 uM GlcN6P” value is less than 1e-05 s⁻¹.

On to AUAAAAGCGGCAGAACUACAGAAAUGUAGUUGACGCGGAGGACGUUUAUCGAAUUUUCGGCGGAUGCCUCCAAA [C10G A36C G43C], for which, in the data set with glucosamine-6-phosphate [1], the “self-cleavage kobs at 40 uM GlcN6P” value is less than 1e-05 s⁻¹. The “self-cleavage kobs at 640 uM GlcN6P” value with glucosamine-6-phosphate [3] was less than 1e-05 s⁻¹. Also, in the data set with glucosamine-6-phosphate [4], the “self-cleavage kobs at 10000 uM GlcN6P” value was less than 1e-05 s⁻¹.

AUAAAAGCGUCAGAACUACAGAAAUGUAGUUGACGACGAGGAGGUUUAUCGAAUUUUCGGCGGAUGCCUCCAAA [C10U G37C]: the “self-cleavage kobs at 40 uM GlcN6P” value with glucosamine-6-phosphate [1] was less than 1e-05 s⁻¹. Also, the “self-cleavage kobs at 640 uM GlcN6P” value with glucosamine-6-phosphate [3] was less than 1e-05 s⁻¹. For the same variant, in the data set with glucosamine-6-phosphate [4], the “self-cleavage kobs at 10000 uM GlcN6P” value is less than 1e-05 s⁻¹.

For AUAAAAGCGCCAUAACUACAGAAAUGUAUUUGACGAGGAGGAGGUUUAUCGGAUUUUCGGCGGAUGGCUCCAAA [G13U G29U A52G C67G], the “self-cleavage kobs at 40 uM GlcN6P” value with glucosamine-6-phosphate [1] came to 6.42e-05 ± 1.9e-05 s⁻¹. Also, in the data set with glucosamine-6-phosphate [4], the “self-cleavage kobs at 10000 uM GlcN6P” value was 8.86e-05 ± 1.8e-05 s⁻¹.

On to AUAAAAGCGUCAGAACUACAGAAAUGUAGUUGACGAGGAUGAGGUUUUUCGAAUUUUCGGCGGAUGCCUCCAAA [C10U G40U A48U], for which the “self-cleavage kobs at 40 uM GlcN6P” value with glucosamine-6-phosphate [1] was less than 1e-05 s⁻¹. Besides, the “self-cleavage kobs at 640 uM GlcN6P” value with glucosamine-6-phosphate [3] is less than 1e-05 s⁻¹. In addition, the “self-cleavage kobs at 10000 uM GlcN6P” value with glucosamine-6-phosphate [4] is less than 1e-05 s⁻¹.
